Measurements taken from patent US8076300B2, “FGF2-binding peptides and uses thereof” (Tecnogen S.p.A., priority 2006, dated 2011).
Ends that are not written are not given here.

Key:
[1] = tested on: GM7373 cells; assay: Cell proliferation assay, endothelial GM7373 cells; type: cell-based, bovine; details: for inhibition of mitogenic activity exerted by FGF2 / inhibition of FGF2 mitogenic activity by conditioned medium of infected MAE cells: FGF2 0.55 nM; for inhibition of mitogenic activity exerted by FGF2: peptides 66 μM, PTX3 220 nM; for inhibition of FGF2 mitogenic activity by conditioned medium of infected MAE cells: 24 h
Protocol: Cell proliferation assay on endothelial cells was performed as described^22. Briefly, GM7373 or MAE cells were seeded in 96-well dishes at 75,000 cells/cm^2 or 25,000 cells/cm^2, respectively. After 16 h, cells were incubated in fresh medium containing 0.4% FCS plus FGF2 (0.55 nM) in the absence or in the presence of different antagonists. After 24 or 48 h, respectively, cells were trypsinized and counted in a Burker chamber.

[2] = target: T1, FGF2 (Homo sapiens, UniProt P09038); assay: Solid phase binding assay, FGF2 binding to immobilized synthetic PTX3 peptides; design: made in house; host or cells: E. coli; details: peptides 200 μg/well, FGF2 80 nM
Protocol: (§1) ELISA microplates were incubated for 16 hours at 4° C. with 100 μl/well of 100 mM NaHCO3, pH 9.6 (coating buffer) containing FGF2 (270 nM). Then, wells were overcoated for 2 hours at room temperature with 5% dry milk in coating buffer. […] Then, wells were sequentially incubated for 1 hour at 37° C. with a rabbit polyclonal anti-PTX3 antibody (1:2000 dilution) that recognizes both PTX3 fragments with similar efficiency in Western blot and ELISA, an anti-rabbit biotinylated antibody (1:2000), and 100 μl of streptavidin-horseredish peroxidase (1:5000, Amersham) for 1 hour at room temperature. Then, 100 μl/well of the chromogen substrate 2,29-azinobis(3-ethylbenzthiazolinesulfonic acid) were added. Absorbance values were read at 405 nm in an automatic ELISA reader. In some experiments, 100-μl aliquots of PBS containing biotin-labeled PTX3 (bPTX3) (22 nM) were incubated for 30 minutes at 37° C. onto FGF2-coated wells with or without competitors. Then, wells were washed, and the amount of bound bPTX3 was evaluated as described^17. Alternatively, synthetic PTX3 peptides were immobilized on ELISA microplate wells (200 μg/well) as described above. Then, FGF2 (80 nM) was added and FGF2 bound to immobilized peptides was assessed by 1 hour incubation at 37° C. with a rabbit polyclonal anti-FGF2 antibody (1:7000) followed by immunocomplex detection as described above.
Target sequence in this assay (P09038 134-288): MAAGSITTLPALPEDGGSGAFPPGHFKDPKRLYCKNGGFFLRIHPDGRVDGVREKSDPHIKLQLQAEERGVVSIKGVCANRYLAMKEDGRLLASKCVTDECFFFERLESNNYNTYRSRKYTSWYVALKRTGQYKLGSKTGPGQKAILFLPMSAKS

[3] = target: T1, FGF2; assay: BIAcore binding assay, FGF2 binding to PTX3 immobilized to a sensorchip; design: made in house; host or cells: FGF2: E. coli; PTX3: Chinese hamster ovary cells; details: for inhibition of FGF2 binding to PTX3 immobilized to a BIAcore sensorchip / IC50: FGF2 0.8 μM; for inhibition of FGF2 binding to PTX3 immobilized to a BIAcore sensorchip: increasing peptide concentrations; for IC50: antagonist in mobile phase, read-out: ID50, inhibition of FGF2 binding to the PTX3 surface
Protocol: A BIAcore X apparatus (BIAcore Inc, Piscataway, N.J.) was used. Surface plasmon resonance was exploited to measure changes in refractive index caused by the ability of FGF2 to bind to PTX3 immobilized to a BIAcore sensorchip. To this purpose, PTX3 (2.2 μM) was allowed to react with a flow cell of a CM4 sensorchip that was previously activated with 50 μl of a mixture of 0.2 M N-ethyl-N′-(3-dimethylaminopropyl)-carbodiimide hydrochloride and 0.05 M N-hydroxysuccinimide. These experimental conditions allowed the immobilization of 5,000 resonance units (RUs), corresponding to approximately 0.1 pmoles of PTX3. Similar results were obtained for immobilization of gelatin, here used as a negative control and for blank subtraction. Increasing concentrations of FGF2 with or without synthetic PTX3 peptides were then injected in dilution buffer (PBS plus 0.005% surfactant P20, 5.0 μg/mL CaCl2 and MgCl2) over the PTX3 surface for 4 minutes (to allow their association with immobilized PTX3) and then washed until dissociation was observed.
Target sequence in this assay (P09038 134-288): as above

[4] = target: T1, FGF2; details: cited from earlier work
Target sequence in this assay (P09038 143-288): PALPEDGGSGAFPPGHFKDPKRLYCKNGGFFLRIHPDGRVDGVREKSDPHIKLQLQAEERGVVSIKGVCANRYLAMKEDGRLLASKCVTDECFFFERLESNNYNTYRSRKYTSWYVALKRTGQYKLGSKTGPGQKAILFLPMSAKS

[5] = tested on: chick embryo CAM; assay: Chicken embryo chorioallantoic membrane (CAM) assay, FGF2-induced neovascularization; type: in vivo; details: for macroscopic vessels converging towards the implant: FGF2 16 pmoles/embryo, with or without 3.0 nmoles of peptide, 72 hours
Protocol: Alginate beads (5 μl) containing vehicle or 16 pmoles of FGF2 with or without synthetic PTX3 peptides were prepared as described 24 and placed on top of the CAM of fertilized White Leghorn chicken eggs at day 11 of incubation (10 eggs per experimental group). After 72 hours, blood vessels converging towards the implant were counted by two observers in a double-blind fashion under a stereomicroscope (STEMI-SR, x2/0.12; Zeiss).

[6] = tested on: MAE cells; assay: Cell proliferation assay, retrovirus infected MAE cells stimulated with FGF2; type: cell-based, murine; details: retroviral overexpression in MAE cells, FGF2 0.55 nM, 48 h
Excerpt: The cDNAs encoding for human PTX3 and for the enhanced green fluorescent protein (EGFP) were obtained as described^17. The cDNAs encoding for the N-terminal fragment PTX3(1-178) (Nterm-PTX3) and the C-terminal fragment PTX3(179-381) fused to the leader sequence for secretion PTX3(1-17) (sCterm-PTX3) were generated from pLX-PTX3^17 by PCR and standard cloning techniques. All cDNAs were cloned in the pBABE retroviral vector thus generating pBABE-PTX3, pBABE-Nterm-PTX3, pBABE-sCterm-PTX3, and pBABE-EGFP that were used to transfect the EcoPack2-293 packaging cells in the presence of Lipofectamin 17. Transduced cells were selected with puromycin (1 μg/ml, Sigma) for 2 weeks. Clones with a viral titer higher than […] were used for further experimentation. Confluent cultures of MAE cells were then incubated for 24 hours with the conditioned medium from pBABE-PTX3, pBABE-Nterm-PTX3, PBABE-sCterm-PTX3, or pBABE-EGFP packaging cells in the presence of polybrene (8 μg/ml, Sigma). Infected cell populations were selected for 7 days with puromycin. […] To assess the levels of transgene protein expression and release by infected cells, cell cultures were grown under serum-free conditions for 2 days. […]
Cell proliferation assay on endothelial cells was performed as described^22. […] After 24 or 48 h, respectively, cells were trypsinized and counted in a Burker chamber.

[7] = target: T2, FGF2/PTX3 interaction (Homo sapiens, UniProt P09038+P26022); assay: Solid phase binding assay, biotinylated PTX3 (bPTX3) binding to immobilized FGF2 with competitors; details: bPTX3 22 nM, competitor 10 fold-molar excess (220 nM)
T2 construct: biotinylated PTX3 (bPTX3, 22 nM) in the absence or in the presence of a 10 fold-molar excess of full length PTX3; made in house; host or cells: FGF2: E. coli; PTX3: Chinese hamster ovary cells
Protocol: ELISA microplates were incubated for 16 hours at 4° C. with 100 μl/well of 100 mM NaHCO3, pH 9.6 (coating buffer) containing FGF2 (270 nM). Then, wells were overcoated for 2 hours at room temperature with 5% dry milk in coating buffer. […] Then, 100 μl/well of the chromogen substrate 2,29-azinobis(3-ethylbenzthiazolinesulfonic acid) were added. Absorbance values were read at 405 nm in an automatic ELISA reader. In some experiments, 100-μl aliquots of PBS containing biotin-labeled PTX3 (bPTX3) (22 nM) were incubated for 30 minutes at 37° C. onto FGF2-coated wells with or without competitors. Then, wells were washed, and the amount of bound bPTX3 was evaluated as described^17. Alternatively, synthetic PTX3 peptides were immobilized on ELISA microplate wells (200 μg/well) as described above. Then, FGF2 (80 nM) was added and FGF2 bound to immobilized peptides was assessed by 1 hour incubation at 37° C. with a rabbit polyclonal anti-FGF2 antibody (1:7000) followed by immunocomplex detection as described above.

[8] = target: T1, FGF2; assay: Solid phase binding assay, PTX3 proteins on FGF2-coated wells; design: made in house; host or cells: E. coli; details: proteins at 44 nM, 30 minutes at 37° C.
Protocol: as §1
Target sequence in this assay (P09038 134-288): as the sequence (P09038 134-288) above

T2 sequence (P09038 134-288): as above
T2 sequence (P26022 18-381): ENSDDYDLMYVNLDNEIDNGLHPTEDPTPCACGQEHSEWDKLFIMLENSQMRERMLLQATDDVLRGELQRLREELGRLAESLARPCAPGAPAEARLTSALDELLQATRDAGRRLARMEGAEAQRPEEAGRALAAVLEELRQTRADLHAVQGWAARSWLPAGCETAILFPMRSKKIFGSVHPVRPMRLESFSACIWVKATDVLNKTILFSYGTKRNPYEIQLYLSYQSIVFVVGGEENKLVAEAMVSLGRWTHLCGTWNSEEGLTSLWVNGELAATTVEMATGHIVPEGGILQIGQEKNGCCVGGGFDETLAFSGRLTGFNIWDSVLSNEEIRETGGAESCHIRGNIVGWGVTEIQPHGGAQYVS

Molecule | binding of free FGF2 to immobilized peptide or PTX3 [2] | inhibition of FGF2 binding to PTX3 immobilized to a BIAcore sensorchip [3] | inhibition of mitogenic activity exerted by FGF2 [1] | further results
CRP: classical short-pentraxin C-reactive protein |  |  |  | FGF2 binding [4]: inefficient FGF2 binders
DKLFIMLENSQMRERMLLQATDDVLRGEL [PTX3(57-85)] | not | no inhibitory effect | ineffective | 
DNEIDNGLHPTEDPTPCDCGQEHSEWDKLF [PTX3(31-60)] | not | no inhibitory effect | ineffective | 
EGLRGELRGSREAELLRQAARAPACPLPE [scrambled PTX3(82-110), reference compound] |  |  |  | IC50 [3]: > 3000 µM
ESLARPCA [PTX3(97-104)] |  | did not prevent the binding |  | 
ESLARPCAPGAPAE [PTX3(97-110)] | binds | preventing its interaction with PTX3 immobilized to a BIAcore sensorchip | inhibits | inhibition in the angiogenic response triggered by FGF2 ([5]; 80 nmoles of peptide, FGF2 16 pmoles): 50%
FGF2: Human recombinant FGF2 expressed in E. coli; heparin-binding growth factor, the angiogenic stimulus |  |  |  | macroscopic vessels converging towards the implant [5]: 44±7 vessels/embryo
RGELQRLREELGRLA [PTX3(82-96)] | without interacting | ineffective | not | effect on angiogenic response triggered by FGF2 ([5]; FGF2 16 pmoles): no effect
RGELQRLREELGRLAESLAR [PTX3(82-101)] | without interacting | ineffective | not | 
RGELQRLREELGRLAESLARPCAPGAPAE [PTX3(82-110)] | binds |  | inhibit | IC50 ([1]; dose-response, read-out: ID50, FGF2-antagonist activity on GM7373 cell proliferation): 30 µM; macroscopic vessels converging towards the implant [5]: 28±5 vessels/embryo; IC50 [3]: 30 µM; potency relative to free full length PTX3 ([3]; inhibition of FGF2 binding to PTX3 surface): 30 times lower
sCterm-PTX3: C-terminal fragment PTX3(179-381) fused to the leader sequence for secretion PTX3(1-17) (protein) CETAILFPMRSKKIFGSVHPVRPMRLESFSACIWVKATDVLNKTILFSYGTKRNPYEIQLYLSYQSIVFVVGGEENKLVAEAMVSLGRWTHLCGTWNSEEGLTSLWVNGELAATTVEMATGHIVPEGGILQIGQEKNGCCVGGGFDETLAFSGRLTGFNIWDSVLSNEEIRETGGAESCHIRGNIVGWGVTEIQPHGGAQYVS |  |  |  | capacity of infected cells to proliferate in response to exogenous FGF2 [6]: No inhibition; inhibition of FGF2 mitogenic activity by conditioned medium of infected MAE cells [1]: ineffective
Cterm-PTX3: recombinant 6×His-tagged C-terminal fragment of PTX3 from E. coli (protein) CETAILFPMRSKKIFGSVHPVRPMRLESFSACIWVKATDVLNKTILFSYGTKRNPYEIQLYLSYQSIVFVVGGEENKLVAEAMVSLGRWTHLCGTWNSEEGLTSLWVNGELAATTVEMATGHIVPEGGILQIGQEKNGCCVGGGFDETLAFSGRLTGFNIWDSVLSNEEIRETGGAESCHIRGNIVGWGVTEIQPHGGAQYVSHHHHHH |  |  |  | binding to FGF2 immobilized to non-tissue culture plastic [8]: No interaction

Now from value to molecule, other results behind:

binding of free FGF2 to immobilized peptide or PTX3 [2] | inhibition of FGF2 binding to PTX3 immobilized to a BIAcore sensorchip [3] | Molecule | inhibition of mitogenic activity exerted by FGF2 [1] | further results
limited interaction | no inhibitory effect | APAEARLTSALDELLQATRDAGRRLA [PTX3(107-132)] | ineffective | 
 | significant binding to FGF2 | ARPCA [PTX3(100-104)] | inhibits | 
 | did not prevent the binding | ARPCAPGAPAE [PTX3(100-110)] |  | 
 | significant binding to FGF2 | ESLARPCAPGA [PTX3(97-107)] |  | 
binds |  | PTX3: Human recombinant PTX3 (swiss-prot P26022) expressed in Chinese hamster ovary cells; long-pentraxin | inhibit | capacity of infected cells to proliferate in response to exogenous FGF2 [6]: significant decrease; inhibition of FGF2 mitogenic activity by conditioned medium of infected MAE cells [1]: significant inhibition; prevention of bPTX3 binding to immobilized FGF2 [7]: prevents the capacity of bPTX3 to bind immobilized FGF2; prevention of bPTX3 binding to immobilized FGF2 ([7]; listed as full length PTX3): prevented the binding; binding to FGF2 immobilized to non-tissue culture plastic [8]: showed the capacity to bind FGF2; FGF2 bound at the end of the injection phase ([3]; FGF2 0.8 μM over immobilized PTX3): 350-400 RU; kinetic dissociation constant (koff) of FGF2/PTX3 interaction ([3]; FGF2 0.1 to 1.1 μM over immobilized PTX3): 6e-05 s⁻¹
